Test system: T1, BssHII restriction endonuclease (bssHIIR) (Bacillus stearothermophilus H3)
T1 sequence: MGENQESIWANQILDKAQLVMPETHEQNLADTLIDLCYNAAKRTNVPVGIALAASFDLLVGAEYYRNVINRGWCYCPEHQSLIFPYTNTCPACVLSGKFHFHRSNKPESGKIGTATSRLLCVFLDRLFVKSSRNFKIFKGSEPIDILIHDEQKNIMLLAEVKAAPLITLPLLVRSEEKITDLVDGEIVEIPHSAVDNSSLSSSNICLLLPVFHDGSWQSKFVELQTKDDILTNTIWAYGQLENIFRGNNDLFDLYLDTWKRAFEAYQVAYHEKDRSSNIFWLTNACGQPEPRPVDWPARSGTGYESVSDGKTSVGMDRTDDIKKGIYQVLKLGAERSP
Experiment: cleavage_in_vitro
Settings: cell extract; activity seen after 10- and 100-fold dilution

lambda DNA (BssHII sites) showed an activity (units per g wet cells) of 100000.

From patent US5786195
